Patent publication US8058396B2, “Cystatin C as an antagonist of TGF-β and methods related thereto” (National Jewish Health, priority 2003, dated 2011)

B1: CystC: full-length human Cystatin C (SEQ ID NO:2), C-terminally Myc- and (His)6-tagged, retrovirally expressed and secreted by the cells (protein, listed as Homo sapiens)
chain: MAGPLRAPLLLLAILAVALAVSPAAGSSPGKPPRLVGGPMDASVEEEGVRRALDFAVGEYNKASNDMYHSRALQVVRARKQIVAGVNYFLDVELGRTTCTKTQPNLDNCPFHDQPHLKRKAFCSFQIYAVPWQGTMTLSKSTCQDA
modifications: C-terminal Myc and His6 tags
B2: Δ14CystC: human CystC with deletion of positions 80 to 93 (conserved cysteine proteinase inhibitor motif), retrovirally expressed and secreted (protein)
chain: MAGPLRAPLLLLAILAVALAVSPAAGSSPGKPPRLVGGPMDASVEEEGVRRALDFAVGEYNKASNDMYHSRALQVVRARLGRTTCTKTQPNLDNCPFHDQPHLKRKAFCSFQIYAVPWQGTMTLSKSTCQDA
modifications: left off: small tags and cut ends

Columns and labels:
[1] = test system: NMuMG mammary epithelial cells; experiment: TGF-β-stimulated actin cytoskeletal reorganization (EMT) in NMuMG cells, rhodamine-phalloidin immunofluorescence; type: cell-based, murine; details: overexpression in NMuMG cells; TGF-β1 5 ng/ml, 8 hours
Experimental: (§1) The ability of TGF-β to alter actin cytoskeletal architecture and E-cadherin expression was monitored essentially as described (Piek et al., 1999). Briefly, control-, CystC-, or Δ14CystC-expressing NMuMG cells were allowed to adhere overnight to glass coverslips in 24-well plates (50,000 cells/well). The cells were stimulated the following day with TGF-β1 (5 ng/ml) for 0-36 hours at 37° C. In some experiments, control NMuMG cells were stimulated with TGF-β1 in the absence or presence of 10 μg/ml of recombinant GST, GST-CystC, or GST-Δ14CystC. Upon completion of agonist stimulation, the cells were washed in ice-cold PBS and immediately fixed in 3.7% formaldehyde. After extensive washing in PBS, the cells were blocked in PBS supplemented with 1.5% FBS, followed by incubation with rhodamine-phalloidin (0.25 μM). […]
(§2) To test this hypothesis, the inventor first examined whether CystC and a CystC mutant impaired in its ability to inhibit cathepsin protease activity (i.e., Δ14CystC) could antagonize TGF-β stimulation of EMT in MECs. […] TGF-β stimulation of EMT is studied routinely in murine NMuMG MECs, which readily undergo EMT when treated with TGF-β (Piek et al., 1999; Miettinen et al., 1994; Gotzmann et al., 2004). […] E-cadherin expression was monitored by indirect immunofluorescence with anti-E-cadherin antibodies.
In another experiment, NMuMG cells were infected with ecotropic retrovirus encoding either GFP (i.e., control), CystC, or Δ14CystC, and subsequently were isolated by FACS-sorting for GFP expression to yield stable polyclonal populations of control, CystC, and Δ14CystC-expressing cells. The expression and secretion of recombinant CystC proteins by infected NMuMG and NRK cells was monitored by immunoblotting conditioned-media with anti-CystC antibodies. […] Next, the control, CystC-, and Δ14CystC-expressing NMuMG cells were incubated in the absence or presence of TGF-β1 (5 ng/ml) for 36 hours, whereupon E-cadherin expression was monitored by immunoblotting with anti-E-Cadherin antibodies. […]

[2] = test system: NMuMG mammary epithelial cells; experiment: TGF-β-mediated downregulation of E-cadherin in NMuMG cells; type: cell-based, murine; details: overexpression in NMuMG cells; TGF-β1 5 ng/ml, 36 hours
Experimental: as §1
The ability of TGF-β to alter E-cadherin expression also was monitored by immunoprecipitating E-cadherin from Buffer H/1% Triton X-100-solubilized (Schiemann et al., 2003) NMuMG whole cell extracts, followed by immunoblotting with anti-E-cadherin antibodies (1:1000 dilution).
as §2
In another experiment, NMuMG cells were infected with ecotropic retrovirus encoding either GFP (i.e., control), CystC, or Δ14CystC, and subsequently were isolated by FACS-sorting for GFP expression to yield stable polyclonal populations of control, CystC, and Δ14CystC-expressing cells. The expression and secretion of recombinant CystC proteins by infected NMuMG and NRK cells was monitored by immunoblotting conditioned-media with anti-CystC antibodies. […]

TGF-β signaling = experiment: p3TP-luciferase reporter gene assay in HT1080 cells; type: cell-based, human; details: expression in HT1080 cells; TGF-β1 0-5 ng/ml
Experimental: Analysis of luciferase activity driven by the synthetic p3TP reporter ((26); generously provided by Dr. Joan Massague, Sloan Kettering) was performed as described previously (42). Briefly, control, CystC-, or Δ14CystC-expressing 3T3-L1 or HT1080 cells were cultured onto 24-well plates at a density of 45,000 cells/well and allowed to adhere overnight. The cells were transiently transfected the following morning by overnight exposure to LT1 liposomes (Mirus) containing 300 ng/well p3TP-luciferase and 100 ng/well of pCMV-β-gal. Afterward, the cells were washed twice with PBS and stimulated overnight in serum-free media with increasing concentrations of TGF-β1 as indicated. The following morning, luciferase and β-gal activities contained in detergent-solubilized cell extracts were determined.
The inventor therefore hypothesized that CystC expression might impact TGF-β signaling via a cathepsin B-dependent mechanism. To test this hypothesis, changes in luciferase expression driven by the synthetic p3TP-luciferase reporter gene (26) were measured in control- and CystC-expressing HT1080 cells. Briefly, GFP-, CystC-, or Δ14CystC-expressing HT0180 cells were transiently transfected with p3TP-luciferase and pCMV-β-gal. The transfectants were stimulated with increasing concentrations of TGF-β1 (0-5 ng/ml) as indicated, and subsequently processed to measure luciferase and β-gal activities. […]

HT1080 cells [3] = experiment: Migration of HT1080 cells to fibronectin; type: cell-based, human; details: overexpression in HT1080 cells; data not shown
HT1080 cells [4] = experiment: DNA synthesis in HT1080 cells; type: cell-based, human; details: overexpression in HT1080 cells; data not shown
NRK kidney fibroblasts = experiment: NRK cell invasion through Matrigel matrices; type: cell-based, rat; details: expression in NRK cells, 48 hours, p<0.05; for TGF-β-stimulated NRK cell invasion through synthetic basement membranes: TGF-β1 5 ng/ml
Experimental: This hypothesis was tested by infecting NRK cells with bicistronic retrovirus encoding either CystC or Δ14CystC to determine their effects on NRK anchorage-independent growth stimulated by TGF-β. Briefly, rat NRK kidney fibroblasts were infected with control (i.e., pMSCV-IRES-GFP), CystC, or Δ14CystC retroviral supernatants, and the resulting infected cells were isolated by GFP fluorescence on a MoFlo cell sorter 48 hours later. Control, CystC-, and Δ14CystC-expressing NRK cells were cultured in soft-agar in the absence or presence of TGF-β1 (5 ng/ml) for 7 d, whereupon NRK colony formation was quantified by light microscopy. In addition, control, CystC-, and Δ14CystC-expressing NRK cells were allowed to invade through Matrigel matrices in the absence or presence of TGF-β1 (5 ng/ml) for 48 hours.

Molecule	actin cytoskeletal reorganization stimulated by TGF-β [1]	TGF-β-mediated downregulation of E-cadherin [2]	TGF-β-stimulated luciferase activity driven by the p3TP promoter (TGF-β signaling)	migration of HT1080 cells to fibronectin (HT1080 cells [3])	synthesis of DNA in HT1080 cells (HT1080 cells [4])	tonic NRK cell invasion (NRK kidney fibroblasts)	TGF-β-stimulated NRK cell invasion through synthetic basement membranes (NRK kidney fibroblasts)
B1	prevented	antagonized	significantly inhibited	failed to effect	failed to effect	inhibited significantly	inhibited significantly
B2	prevented	antagonized	equally effective as CystC	failed to effect	failed to effect		inhibited significantly
